{
  "source": "patent US20060018911A1",
  "key": {"[1]": {"target": "purified IgM antibody (38C13)", "assay": "antibody microarray, printed S1C5, goat anti-mouse IgM HRP chemiluminescence"}, "[2]": {"target": "38C13 IgM in 38C13 cell extract", "assay": "antibody microarray, printed S1C5, cell extract, goat anti-mouse IgM HRP chemiluminescence"}},
  "data": [
    {"substance": "S1C5 anti-idiotype monoclonal antibody (anti-IgM antibody)", "values": [
      {"measurement": "lowest IgM concentration giving signal", "setting": "[1]", "result": 0.1, "unit": "µg/mL"},
      {"measurement": "lowest spotted antibody concentration giving signal", "setting": "[1]", "result": 25, "unit": "µg/mL"},
      {"measurement": "highest extract dilution giving signal (fold dilution (1:x))", "setting": "[2]", "result": 2000},
      {"measurement": "lowest printed antibody concentration giving signal", "setting": "[2]", "result": 50, "unit": "µg/mL"}
    ]}
  ]
}
